Measured values taken from patent US20090191235A1.

How the values were obtained:
17b antibody = assay: SPR (Biacore); 17b on-rate with CD4 over without CD4
[1] = molecular target: CD4 as used in isothermal titration calorimetry (UniProt P01730); assay: ITC, drawn table of thermodynamic values, column 'Kd (nM) to sCD4'
[2] = molecular target: CD4 as used in isothermal titration calorimetry (UniProt P01730); assay: ITC, drawn table of thermodynamic values of CD4-gp120 binding
2-domain CD4 [3] = molecular target: 2-domain CD4 (UniProt P01730); assay: ITC, titration of HXBc2 core with sCD4(D1D2) at 37°C, value in the box beside the curve
2-domain CD4 [4] = molecular target: 2-domain CD4 (UniProt P01730); assay: SPR (Biacore), 2-domain CD4 immobilised, gp120 analyte
2-domain CD4 [5] = molecular target: 2-domain CD4 (UniProt P01730); assay: ITC, titration of HXBc2 core with sCD4(D1D2) at 37°C, stoichiometry marked at molar ratio 1.0 (CD4/core gp120)

“gp120 HXBc2 core, wild type (from UniProt P04578 83-492)” was tested, and the CD4 Induction (17b antibody) was 79.9, the Kd [1] was 87 nM and the -TΔS [2] was 40 kcal/mol. The ΔH [2] was -49.7 kcal/mol, the -TΔS (2-domain CD4 [3]) was 40 kcal/mol and the Kd (2-domain CD4 [3]) was 117 nM. The ΔH (2-domain CD4 [3]) was -49 kcal/mol, the Kd (2-domain CD4 [4]) was 29.5 nM and the n (2-domain CD4 [5]) was 1.
